{"source": "patent US9664683B2", "about": "“Profiling of signal pathway proteins to determine therapeutic efficacy” (Nestec S.A., priority 2011, dated 2017)", "key": {"PI3K pathway": {"system": "PI3K pathway", "assay": "CEER-FNA pathway profiling of breast cancer tumor samples exposed to anti-cancer therapy", "assay_type": "cell-based", "conditions": "breast cancer tumor samples exposed to AKT inhibitor and/or Lapatinib; FIG. 17", "from_the_text": "The breast cancer tumor samples were exposed to AKT inhibitor and/or Lapatinib (a tyrosine kinase inhibitor). This example illustrates that cancer cells can adapt to therapeutic pressure due to drug therapy. […] FIG. 17 illustrates CEER-FNA analysis of biomarkers in pathway profiling of breast cancer cell samples after treatment with an AKT inhibitor, Lapatinib (a tyrosine kinase inhibitor) or combination therapy."}, "[1]": {"system": "HER2 heterodimers and PI3K", "assay": "Proximity based dimer/complex assay in MCF7 cells", "assay_type": "cell-based, human", "conditions": "response to ligand, FIG. 20", "from_the_text": "FIG. 1A-C show one embodiment of the foregoing proximity assay for detection of dimerization of receptor tyrosine kinases. […] A first detection antibody 115 is then used to bind to a different portion (e.g., epitope) on HER2. A second detection 120 antibody is thereafter used to bind to the dimerized second receptor tyrosine 1kinase e.g., HER3 125. The first detection antibody comprises one or a plurality of first activation state-independent antibodies specific for one member of the dimer, whereas a second detection antibody or a plurality of second detection antibodies is specific for the other member of the dimer. The first detection antibody is labeled with a facilitating moiety e.g., glucose oxidase (GO) and the second detection antibody is labeled with a first member of a signal amplification pair e.g., horseradish peroxidase (HRP). The facilitating moiety generates an oxidizing agent e.g., hydrogen peroxide, which channels to and reacts with the first member of the signal amplification pair. Thereafter, the plurality of detectable captured analytes are incubated with a second member of the signal amplification pair e.g., tyramide or tyramide biotin to generate an amplified signal, which is then detected. […]"}, "PI3K complex": {"system": "PI3K complex", "assay": "Proximity (CEER) assay detecting PI3K complexes in T47D cells", "assay_type": "cell-based, human", "conditions": "T47D cells treated with heregulin (HRG), compared to non-treated cells; FIG. 4C", "from_the_text": "FIG. 4C illustrates the detection of activated PI3K complexes in T47D cells (human ductal breast epithelial tumor cell line) treated with heregulin (HRG), compared to non-treated cells. In some embodiments, the detection of PI3K complexes will also correlate with the detection of activated (e.g., phosphorylated) PI3K. […]"}}, "data": [{"compound": "CS(=O)(=O)CCNCc1ccc(-c2ccc3ncnc(Nc4ccc(OCc5cccc(F)c5)c(Cl)c4)c3c2)o1", "note": "[Lapatinib, lapatinib]", "values": [{"measurement": "levels of phosphorylated pathway proteins after treatment", "setting": "PI3K pathway", "value": "Higher levels of phosphorylated PI3K, AKT, ERK"}]}, {"compound": "EGF: pathway activating ligand used to stimulate MCF7 cells", "values": [{"measurement": "activation of HER2 heterodimers and PI3K", "setting": "[1]", "value": "activation of HER2 heterodimers and PI3K"}]}, {"compound": "heregulin [HRG]", "values": [{"measurement": "activation of HER2 heterodimers and PI3K", "setting": "[1]", "value": "activation of HER2 heterodimers and PI3K"}, {"measurement": "detection of PI3K complexes", "setting": "PI3K complex", "value": "PI3K complexes were detected"}]}]}
